Consider one protein from FireProtDB (doi:10.1074/jbc.271.51.32729).

For the data set the following is noted: Escherichia coli (strain K12), Thermal, CD, reversible: yes, whole UniProt chain shown.

B1: Ribonuclease HI wild type, P0A7Y4 (protein)
chain: MLKQVEIFTDGSCLGNPGPGGYGAILRYRGREKTFSAGYTRTTNNRMELMAAIVALEALKEHCEVILSTDSQYVRQGITQWIHNWKKRGWKTADKKPVKNVDLWQRLDAALGQHQIKWEWVKGHAGHPENERCDELARAAAMNPTLEDTGYQVEV
In the case of B1, for the setting “pH 3, glycine-HCl 10 mM”, the Tm (commonly the temperature at which the thermal transition is half complete) was 50 °C and the “unfolding enthalpy (van 't Hoff)” value turned out to be 95.1 kcal/mol. Besides, the Tm (pH 9, glycine-NaOH 50 mM) amounted to 47 °C.
